B1: Rsc6 (natural protein)
chain: MVTQTNPVPVTYPTDAYIPTYLPDDKVSNLADLKKLIEMDSRLDLYLTRRRLDTSINLPTNTKTKDHPPNKEMLRIYVYNTTESSPRSDSGTPADSGKTTWTLRIEGKLLHESANGKHPFSEFLEGVAVDFKRLKPLGMGKKRKRDSSLSLPLNLQQPEYNDQDSTMGDNDNGEDEDSAEAESREEIVDALEWNYDENNVVEFDGIDIKRQGKDNLRCSITIQLRGVDGGKVQYSPNLATLIGMQTGSVNDAVYSIYKYILINNLFVTEQTEAQDGSNDAEDSSNENNNKNGAGDDDGVEGSTPKDKPELGEVKLDSLLQKVLDTNAAHLPLMNVVQTVNKLVSPLPPIILDYTIDLSKDTTYGATTLDVDVSHILHQPQPQPNLQKEEETDAEDTAKLREITKLALQLNSSAQKYQFFHELSLHPRETLTHYLWSSKQNELVLQGDQYFNEDAARTSDIYSNNNNDRSLMGNISLLYSQGRL
B2: Sfh1 (natural protein)
chain: MSHQNQLIPQAYISNFHNRLTNEDDGIPIFTMAQQTRQHKRAKVVNYAEYDNDLFDEFNMNGSNFNNADTHYKDNAVSHENTPALTNGVTMDGSEYNVLENMNGADSIISNNKYDAGSNMVVESLSGLNSNNNASNGPSNKAQAQDIGNAVLPDLQDQHHNPFNILRYPKIRDTFINGKVVSPYRLNTDQETKANANSGEAIMIPITLDIEHMGHTIKDQFLWNYNDDSISPEEFASIYCKDLDMTSATLQTQIANIIKEQLKDLENIAATEIMSDLHVIINLTCNLQDRFFEDNFQWNLNDKSLTPERFATSIVQDLGLTREFIPLISQSLHETILKIKKDWVDGHLIQDHVPNDAAFGYLSGIRLDIDELGSNWCPRVEILTKEEIQKREIEKERNLRRLKRETDRLSRRGRRRLDDLETTMRM
B3: Rsc8 (natural protein)
chain: MSDTEKDKDVPMVDSHEATEEPPTTSTNTPSFPHLAQEQAKEESATLGAEVAHKKINYEQEAQKLEEKALRFLAKQTHPVIIPSFASWFDISKIHEIEKRSNPDFFNDSSRFKTPKAYKDTRNFIINTYRLSPYEYLTITAVRRNVAMDVASIVKIHAFLEKWGLINYQIDPRTKPSLIGPSFTGHFQVVLDTPQGLKPFLPENVIKQEVEGGDGAEPQVKKEFPVNLTIKKNVYDSAQDFNALQDESRNSRQIHKVYICHTCGNESINVRYHNLRARDTNLCSRCFQEGHFGANFQSSDFIRLENNGNSVKKNWSDQEMLLLLEGIEMYEDQWEKIADHVGGHKRVEDCIEKFLSLPIEDNYIREVVGSTLNGKGGDSRDGSVSGSKLMECVNDAVQTLLQGDDKLGKVSDKSREISEKYIEESQAIIQELVKLTMEKLESKFTKLCDLETQLEMEKLKYVKESEKMLNDRLSLSKQILDLNKSLEELNVSKKLVLISEQVDSGIQLVEKDQEGDDEDGNTATGHGVKRVGKEGEEVGEGDSIAKLQPQVYKPWSL

Legend:
[1] = molecular target: B3; experiment: cryo-EM structure
[2] = molecular target: the molecule itself; experiment: cryo-EM structure

Row | Binder | binding result [1] | binding result [2]
1 | B1 | binds | –
2 | B2 | binds | –
3 | B3 | – | binds
